From patent US5792742 come the findings set out here.

Assay [1] has as its target fibrin (fibrinogen dried on microtiter wells and converted with thrombin). Description: competitive ELISA on fibrin-coated plates, competitor Fn (2.3 nM). In general terms: An ELISA detects its analyte on a solid surface through an enzyme-linked reagent.
Assay [2] has the same target. Description: competitive ELISA against intact Fn on fibrin.
For assay [3] the target is unchanged. Description: competitive ELISA on fibrin-coated plates, competitor Fn.
Assay [4] shares this target. Description: competitive ELISA on fibrin-coated wells, competitor biotinylated Fn (2.3 nM).
The target is the same in assay [5]. Description: competitive ELISA on fibrin-coated plates, competitor Fn (2.3 nM), 5,000 molar excess.

Where no end group is shown, it is not given here. [ ]: non-standard residue; d: D form. pGlu = O=C1CC[C@@H](C(=O)O)N1 A value given as a limit tells only on which side of the number the result lay.

B1: recombinant ^1 F1 module of fibronectin (peptide)
chain: [pGlu]AQQMVQPQSPVAVSQSKPGCYDNGKHYQINQQWERTYLGNALVCTCYGGSRGFNCESKPE
modifications: not fully specified (bridges); also: major species lacks N-terminal Gln-Ala, its new N-terminal Gln also pyroglutamate
In assay [1], B1 returned a % inhibition of Fn binding below 20%.

Regarding CRDEKTQMIYQQHQSWLRPVLRSNRVEYCWCNSGRAQCH (not fully specified (bridges); cysteine pairing not given here) [t-PA type 1 module], the % inhibition (so in the source) in assay [2] came to 45%. In addition, the % inhibition of fibronectin binding in assay [3] amounted to 55%.

B2: recombinant ^1 F1.^2 F1 module pair of fibronectin (peptide)
chain: QAQQMVQPQSPVAVSQSKPGCYDNGKHYQINQQWERTYLGNALVCTCYGGSRGFNCESKPEAEETCFDKYTGNTYRVGDTYERPKDSMIWDCTCIGAGRGRISCTI
modifications: N-terminal pyroglutamate; the major species lacks the NH2-terminal Gln-Ala dipeptide and its new N-terminal Gln is also pyroglutamate
Molecule B2 yielded a % inhibition of biotinylated Fn binding in assay [4] of 15%. This molecule yielded a % inhibition of Fn binding in assay [5] below 20%.
